Biological target: GltPh-XL2 (cysteine-less GltPh with L152C and G351C) (UniProt O59010)
Experiment: cryo-EM structure

stoichiometry N: 3
Substance: GltPh-XL2 (cysteine-less GltPh with L152C and G351C) (from UniProt O59010 1-417) (natural protein)
